The values that follow come from paper doi:10.1101/794511 (bioRxiv, 2019).

To fix the notation:
B1: Ascl1 amino acids 92-231 containing the bHLH domain, His-tagged (domain or fragment)
chain: MRCKRRLNFSGFGYSLPQQQPAAVARRNERERNRVKLVNLGFATLREHVPNGAANKKMSKVETLRSAVEYIRALQQLLDEHDAVSAAFQAGVLSPTISPNYSNDLNSMAGSPVSSYSSDEGSYDPLSPEEQELLDFTNWF
B2: Gsx2^N253A amino acids 167-305 containing the mutated homeodomain, His-tagged (domain or fragment)
chain: not shown

The data set “native gel or EMSA” concerns the molecule itself. Kind of data set: native gel or EMSA.
Data set [1] deals with B1. The experiment in a line: native gel or EMSA.

B1: the binding result in “native gel or EMSA” is “binds”.
As for B2, the binding result in data set [1] is listed as “binds”.
